The target in assay [1] is T1, human 4-1BB on cells (human, UniProt Q07011 24-255).
T1 construct: whole, on cells; Stably transfected CHO cells (flow cytometry) and bought Jurkat reporter cells (bioassay); also called Flp-In-CHO::hu4-1BB; human 4-1BB-expressing CHO cells
Briefly: flow cytometry, Flp-In-CHO::hu4-1BB cells. As for the experimental part:
(§1) CHO cells were stably transfected with human 4-1BB, cynomolgus 4-1BB, or a mock control using the Flp-In system (Life Technologies) according to the manufacturer's instructions. Transfected CHO cells were maintained in Ham's F12 medium (Life Technologies) supplemented with 10% Fetal Calf Serum (Biochrom) and 500 μg/ml Hygromycin B (Roth). Cells were cultured in cell culture flasks according to manufacturer's instruction (37° C., 5% CO₂ atmosphere).
(§2) 5×10⁴ cells per well were incubated for 1 h in ice-cold PBS containing 5% fetal calf serum (PBS-FCS). A dilution series of the tested multimeric proteins (SEQ ID NOs: 38-44 and 46-55), the 4-1BB-targeting lipocalin mutein as included in the multimeric proteins (SEQ ID NO: 64) or the GPC3-targeting lipocalin SEQ ID NO: 90 were added to the cells and incubated for 1 h on ice. Cells were washed twice with PBS and then incubated with a rabbit anti-NGAL or a goat anti-human IgG labeled with fluorescent dye Alexa 488 for 30 min on ice. Human IgG4 isotype (SEQ ID NOs: 29 and 30) and lipocalin mutein SEQ ID NO: 8 were tested as a negative control. Cells were subsequently washed and analyzed using iQue Flow cytometer (Intellicyte Screener). Mean geometric fluorescent signals were plotted and fitted with Graphpad software using nonlinear regression (shared bottom, four parameters, variable slope).
On the technique in general: Flow cytometry measures light scatter and fluorescence of single cells or particles in a stream.

In assay [2] the target is T2, cynomolgus 4-1BB on CHO cells (cynomolgus, UniProt A9YYE7 24-254).
T2 construct: also called Flp-In-CHO::cyno4-1BB; cynomolgus 4-1BB-expressing CHO cells
T2 sequence (A9YYE7 entry or part of it limits assumed): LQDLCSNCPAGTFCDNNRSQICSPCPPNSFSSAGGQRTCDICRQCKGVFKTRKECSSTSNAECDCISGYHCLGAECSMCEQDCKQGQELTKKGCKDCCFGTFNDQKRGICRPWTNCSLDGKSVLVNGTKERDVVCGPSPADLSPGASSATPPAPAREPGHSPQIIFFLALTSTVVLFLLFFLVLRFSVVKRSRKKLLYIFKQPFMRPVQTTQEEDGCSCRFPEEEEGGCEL
Briefly: flow cytometry, Flp-In-CHO::cyno4-1BB cells. As for the experimental part: as §1, §2

For assay [3], the target named is T3, recombinant hu4-1BB-His (human 4-1BB with a C-terminal polyhistidine tag, R&D Systems) (human, UniProt Q07011 24-186).
T3 construct: Bought; not shown: C-terminal polyhistidine tag
Description: ELISA, hu4-1BB-His coated, detection anti-NGAL-HRP. As for the experimental part: Recombinant hu4-1BB-His (human 4-1BB with a C-terminal polyhistidine tag, R&D Systems) at the concentration of 1 μg/mL in PBS was coated overnight on microtiter plates at 4° C. After washing with PBS-0.05% T (PBS supplemented with 0.05% (v/v) Tween 20), the plates were blocked with 2% BSA (w/v) in PBS-0.1% T (PBS supplemented with 0.1% (v/v) Tween 20) for 1 h at room temperature. After washing with 100 μL PBS-0.05% T five times, exemplary multimeric proteins (SEQ ID NOs: 38-44 and 46-53) or 4-1BB-specific lipocalin mutein as included in the multimeric protein (SEQ ID NO: 64) at different concentrations, ranging from 100 to 0.002 nM, were added to the wells and incubated for 1 h at room temperature, followed by another wash step. Bound molecules under study were detected by incubation with 1:1000 diluted anti-NGAL-HRP in PBS-0.1% T-2% BSA. After an additional wash step, fluorogenic HRP substrate (QuantaBlu, Thermo) was added to each well and the fluorescence intensity was detected using a fluorescence microplate reader.
The results of exemplary experiments are depicted in FIG. 2, together with the fit curves resulting from a 1:1 binding sigmoidal fit, where the EC₅₀ value and the maximum signal were free parameters, and the slope was fixed to one. The observed EC₅₀ values toward the hu4-1BB of all tested multimeric proteins were in the sub nanomolar range.

The target in assay [4] is T4, hu4-1BB-Fc (R&D Systems) (human, UniProt Q07011 24-186).
T4 construct: Bought; also called human 4-1BB; not shown: human IgG Fc of the bought fusion
Description: SPR (Biacore 8K), hu4-1BB-Fc captured by anti-human IgG Fc; apparent value, 1:1 fit. As for the experimental part: The anti-human IgG Fc antibody (GE Healthcare) was immobilized on a CM5 sensor chip using standard amine chemistry: the carboxyl groups on the chip were activated using 1-ethyl-3-(3-dimethylaminopropyl)-carbodiimide (EDC) and N-hydroxysuccinimide (NHS). Subsequently, anti-human IgG Fc antibody solution (GE Healthcare) at a concentration of 25 μg/mL in 10 mM sodium acetate (pH 5.0) was applied at a flow rate of 5 μL/min until an immobilization level of 4000-10000 resonance units (RU) was achieved. Residual non-reacted NHS-esters were blocked by passing a solution of 1 M ethanolamine across the surface. The reference channel was treated in an analogous manner. Subsequently, hu4-1BB-Fc (R&D Systems) at 0.3 μg/mL was captured by the anti-human IgG-Fc antibody at the chip surface for 180 s at a flow rate of 10 μL/min.
The binding assay was carried out with a contact time of 180 s, a dissociation time of 1200 s or 3000 s and a flow rate of 30 μL/min. All measurements were performed at 25° C. Lipocalin mutein SEQ ID NO: 64 as included in the multimeric proteins was also tested as […]. […] Prior to the protein measurements, three startup cycles were performed for conditioning purposes. Data were evaluated with Biacore Evaluation software. Double referencing was used and the 1:1 binding model was used to fit the raw data.
For orientation: Surface plasmon resonance follows binding to a sensor surface in real time, without labels.

Assay [5] addresses T5, human GPC3 on HepG2 cells (human, UniProt P51654 25-554).
T5 construct: whole, on cells; Endogenous GPC3 of the tumor cell line; also called GPC3-positive tumor cell line HepG2; human GPC3-expressing HepG2 cells
Description: flow cytometry on HepG2 cells (human GPC3), anti-NGAL detection, GeoMean BL1-H [Cont'd) C]. The protocol: GPC3-positive tumor cell line HepG2 was cultured in Dulbecco's Modified Eagle's Medium ([…], Pan Biotech) supplemented with 10% Fetal Calf Serum (Sigma-Aldrich) and in cell culture flasks according to manufacturer's instruction (37° C., 5% CO₂ atmosphere).
as §2

The target of assay [6] is T6, human OX40 on cells (human, UniProt P43489 29-277).
T6 construct: whole, on cells; Stably transfected CHO cells (flow cytometry) and bought Jurkat reporter cells (OX40 bioassay); also called Flp-In-CHO::huOX40; human OX40-expressing CHO cells
T6 sequence (looked up): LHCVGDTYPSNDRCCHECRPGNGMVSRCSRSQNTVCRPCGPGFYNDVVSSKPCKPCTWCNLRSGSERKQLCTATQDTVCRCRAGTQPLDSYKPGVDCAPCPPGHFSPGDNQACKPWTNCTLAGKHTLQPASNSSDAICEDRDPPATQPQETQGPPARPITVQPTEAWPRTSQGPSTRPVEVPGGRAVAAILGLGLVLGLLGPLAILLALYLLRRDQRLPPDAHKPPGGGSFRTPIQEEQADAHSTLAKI
Briefly: flow cytometry, Flp-In-CHO::huOX40 cells. As for the experimental part:
as §2
(§3) Target-specific binding of hexavalent trimeric proteins to human 4-1BB-, OX40- or PD-L1-expressing cells was assessed by flow cytometry as described in Example 5, using CHO cells stably transfected with human 4-1BB, human OX40 or human PD-L1 (Flp-In system; Life Technologies).

In assay [7] the target is T1, human 4-1BB on cells. Description: flow cytometry, Flp-In-CHO::hu4-1BB cells. The protocol: as §2, §3
The source holds these as a separate data set.

Assay [8] deals with T1, human 4-1BB on cells. Briefly: flow cytometry on Flp-In-CHO::huCD137 (human 4-1BB) cells, anti-NGAL detection, GeoMean BL1-H. As for the experimental part:
as §1, §2

In assay [9] the target is T2, cynomolgus 4-1BB on CHO cells. Description: flow cytometry on Flp-In-CHO::cyCD137 (cynomolgus 4-1BB) cells, anti-NGAL detection, GeoMean BL1-H [Cont'd) B]. The protocol: as §1, §2

Read-outs that look alike come from different tables or passages of the source.

Usually EC50 stands for the concentration giving half of the maximal effect. One may read the koff as the rate constant with which the complex falls apart. The term kon denotes the second-order rate constant of association. As usually defined, the EC50 (read off the curve) is the concentration giving half of the maximal effect. Lower therefore signals higher potency in that assay.

T1 sequence (Q07011 24-255): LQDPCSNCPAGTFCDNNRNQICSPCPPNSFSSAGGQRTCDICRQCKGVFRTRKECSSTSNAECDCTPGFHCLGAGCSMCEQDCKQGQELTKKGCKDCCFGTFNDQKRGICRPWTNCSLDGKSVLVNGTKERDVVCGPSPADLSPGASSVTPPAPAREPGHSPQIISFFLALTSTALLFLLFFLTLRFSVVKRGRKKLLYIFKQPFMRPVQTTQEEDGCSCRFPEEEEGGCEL
T5 sequence (P51654 25-554 limits assumed): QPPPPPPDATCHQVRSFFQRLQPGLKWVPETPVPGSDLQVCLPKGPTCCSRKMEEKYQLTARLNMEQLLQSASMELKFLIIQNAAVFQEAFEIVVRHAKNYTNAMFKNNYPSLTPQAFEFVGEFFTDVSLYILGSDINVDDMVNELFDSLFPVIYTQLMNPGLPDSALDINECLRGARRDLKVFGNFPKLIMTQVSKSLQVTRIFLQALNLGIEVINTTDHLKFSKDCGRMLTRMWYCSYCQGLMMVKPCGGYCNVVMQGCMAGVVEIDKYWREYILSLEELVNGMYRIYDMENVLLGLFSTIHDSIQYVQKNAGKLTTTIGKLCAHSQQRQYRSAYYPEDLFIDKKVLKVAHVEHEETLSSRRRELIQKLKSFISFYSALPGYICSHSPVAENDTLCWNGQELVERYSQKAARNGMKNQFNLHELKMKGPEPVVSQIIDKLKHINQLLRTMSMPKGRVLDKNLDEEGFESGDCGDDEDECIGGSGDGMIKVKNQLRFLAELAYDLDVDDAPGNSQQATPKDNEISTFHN

B1: 4-1BB-specific lipocalin mutein SEQ ID NO: 64 (designed binder)
chain: QDSTSDLIPAPPLSKVPLQQNFQDNQFHGKWYVVGQAGNIRLREDKDPIKMMATIYELKEDKSYDVTMVKFDDKKCMYDIWTFVPGSQPGEFTLGKIKSFPGHTSSLVRVVSTNYNQHAMVFFKFVFQNREEFYITLYGRTKELTSELKENFIRFSKSLGLPENHIVFPVPIDQCIDG
notes: Monomeric hNGAL mutein; also called 4-1BB-targeting lipocalin mutein as included in the multimeric proteins
With B1, the EC50 in [1] was 3.99 nM; in [3], 0.41 nM. Further, the figures for the binding result in [2] and in assay [5] were “no binding” and “no binding (tested: about 200 nM)”, respectively. For the same molecule, in assay [4], the Kd was determined as 0.76 nM. For the same molecule, in [4], the koff was 7.08e-05 s⁻¹. Further, in assay [4], the kon is 92700 M⁻¹ s⁻¹.

B2: bispecific hexavalent trimeric protein SEQ ID NO: 164 (designed binder)
chain: QDSTSDLIPAPPLSKVPLQQNFQDNQFHGKWYVVGQAGNIRLREDKDPIKMMATIYELKEDKSYDVTMVKFDDKKCMYDIWTFVPGSQPGEFTLGKIKSFPGHTSSLVRVVSTNYNQHAMVFFKFVFQNREEFYITLYGRTKELTSELKENFIRFSKSLGLPENHIVFPVPIDQCIDGGGGGSGGGGSGGGGSGVRLWATRQAMLGQVHEVPEGWLIFVAEQEELYVRVQNGFRKVQLEARTPLGGGGSGGGGSGGGGSQDSTSDLIPAPPLSKVPLQQNFQDSQFQGKWYVVGFAGNYRLREDKDPGKMQATIYELREDKAYQVTGVLFPHKKCHDDIVIFVPGSQPGEFILGWIKSDPGITSDLVRVVSTDYNQHAMVFFKWVFQNREWFYITLYGRTKALTSELKENFIRFSKSLGLPEDHIVFPVPIDQCIDGGGSGGAPEQKLISEEDLGSHHHHHHHHHH
For B2, the EC50 came out at 0.71 nM in assay [6] and 3.03 nM in assay [7].

B3: bispecific hexavalent trimeric protein SEQ ID NO: 165 (designed binder)
chain: QDSTSDLIPAPPLSKVPLQQNFQDNQFHGKWYVVGQAGNIRLREDKDPIKMMATIYELKEDKSYDVTMVKFDDKKCMYDIWTFVPGSQPGEFTLGKIKSFPGHTSSLVRVVSTNYNQHAMVFFKFVFQNREEFYITLYGRTKELTSELKENFIRFSKSLGLPENHIVFPVPIDQCIDGGGGGSGGGGSGGGGSQDSTSDLIPAPPLSKVPLQQNFQDSQFQGKWYVVGFAGNYRLREDKDPGKMQATIYELREDKAYQVTGVLFPHKKCHDDIVIFVPGSQPGEFILGWIKSDPGITSDLVRVVSTDYNQHAMVFFKWVFQNREWFYITLYGRTKALTSELKENFIRFSKSLGLPEDHIVFPVPIDQCIDGGGGGSGGGGSGGGGSGVRLWATRQAMLGQVHEVPEGWLIFVAEQEELYVRVQNGFRKVQLEARTPLGGSGGAPEQKLISEEDLGSHHHHHHHHHH
Turning to B3, the results for the EC50 in assay [6] and in assay [7] were 0.18 nM and 2.19 nM, respectively.

B4: multimeric protein SEQ ID NO: 40 (designed binder)
chain: QDSTSDLIPAPPLSKVPLQQNFQDNQFHGKWYVVGQAGNIRLREDKDPIKMMATIYELKEDKSYDVTMVKFDDKKCMYDIWTFVPGSQPGEFTLGKIKSFPGHTSSLVRVVSTNYNQHAMVFFKFVFQNREEFYITLYGRTKELTSELKENFIRFSKSLGLPENHIVFPVPIDQCIDGGGGGSGGGGSGGGGSGGGGSGGGGSGVRLWATRQAMLGQVHEVPEGWLIFVAEQEELYVRVQNGFRKVQLEARTPLGGSGGAPEQKLISEEDLGSHHHHHHHHHH
Consider B4, for which the EC50 in assay [3] came to 0.18 nM. In assay [4], the Kd was found to be 1.18 nM, the koff was 9.75e-05 s⁻¹ and the kon worked out at 82300 M⁻¹ s⁻¹. In assay [8], the “EC50 (read off the curve)” value was ~2 nM. For the same molecule, the “EC50 (read off the curve)” value in assay [9] was ~1 nM.

B5: bispecific hexavalent trimeric protein SEQ ID NO: 166 (designed binder)
chain: QDSTSDLIPAPPLSKVPLQQNFQDSQFQGKWYVVGFAGNYRLREDKDPGKMQATIYELREDKAYQVTGVLFPHKKCHDDIVIFVPGSQPGEFILGWIKSDPGITSDLVRVVSTDYNQHAMVFFKWVFQNREWFYITLYGRTKALTSELKENFIRFSKSLGLPEDHIVFPVPIDQCIDGGGGGSGGGGSGGGGSQDSTSDLIPAPPLSKVPLQQNFQDNQFHGKWYVVGQAGNIRLREDKDPIKMMATIYELKEDKSYDVTMVKFDDKKCMYDIWTFVPGSQPGEFTLGKIKSFPGHTSSLVRVVSTNYNQHAMVFFKFVFQNREEFYITLYGRTKELTSELKENFIRFSKSLGLPENHIVFPVPIDQCIDGGGGGSGGGGSGGGGSGVRLWATRQAMLGQVHEVPEGWLIFVAEQEELYVRVQNGFRKVQLEARTPLGGSGGAPEQKLISEEDLGSHHHHHHHHHH
In the case of B5, the figures for the EC50 in assay [6] and in assay [7] were 0.56 nM and 4.51 nM, respectively.

Values taken from patent publication US20230227568A1 (Pieris, published 2023).
